Positions count from the first letter of the chain named.
Key:
[1] = target: T1, human beta klotho mutant Y701A on HEK-293T cells (human, UniProt Q86Z14 1-1044); assay: shotgun alanine mutagenesis, FACS on HEK-293T cells
T1 sequence: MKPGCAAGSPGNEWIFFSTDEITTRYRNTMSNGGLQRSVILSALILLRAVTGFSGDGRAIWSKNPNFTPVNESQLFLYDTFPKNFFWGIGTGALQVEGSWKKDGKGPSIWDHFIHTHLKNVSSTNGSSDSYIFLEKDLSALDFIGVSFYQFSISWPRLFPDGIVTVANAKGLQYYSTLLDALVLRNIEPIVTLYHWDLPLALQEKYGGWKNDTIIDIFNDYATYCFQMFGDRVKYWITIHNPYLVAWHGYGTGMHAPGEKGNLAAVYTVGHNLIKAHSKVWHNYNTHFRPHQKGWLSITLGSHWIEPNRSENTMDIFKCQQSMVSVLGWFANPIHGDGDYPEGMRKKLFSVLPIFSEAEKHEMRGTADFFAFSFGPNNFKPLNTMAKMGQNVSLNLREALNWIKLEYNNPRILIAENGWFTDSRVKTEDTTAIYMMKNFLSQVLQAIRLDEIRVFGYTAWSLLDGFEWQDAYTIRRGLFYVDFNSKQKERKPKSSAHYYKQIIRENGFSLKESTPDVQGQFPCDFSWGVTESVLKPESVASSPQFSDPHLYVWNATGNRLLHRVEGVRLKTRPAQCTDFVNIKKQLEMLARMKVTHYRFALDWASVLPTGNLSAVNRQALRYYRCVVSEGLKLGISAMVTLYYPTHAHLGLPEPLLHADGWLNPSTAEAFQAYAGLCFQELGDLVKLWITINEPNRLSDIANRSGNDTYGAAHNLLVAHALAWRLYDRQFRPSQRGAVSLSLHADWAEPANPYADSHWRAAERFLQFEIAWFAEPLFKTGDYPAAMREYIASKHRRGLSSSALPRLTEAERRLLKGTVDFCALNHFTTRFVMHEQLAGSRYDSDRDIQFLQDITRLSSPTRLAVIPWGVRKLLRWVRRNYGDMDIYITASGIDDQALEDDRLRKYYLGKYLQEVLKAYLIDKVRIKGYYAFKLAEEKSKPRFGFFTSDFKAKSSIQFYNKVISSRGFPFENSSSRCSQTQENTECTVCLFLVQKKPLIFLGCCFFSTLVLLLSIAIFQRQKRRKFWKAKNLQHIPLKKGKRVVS
Method: (§1) In order to further identify specific binding residues within human beta klotho KL2 domain, shotgun mutagenesis was used to separately mutate individual residues of the KL2 domain of human beta klotho to an alanine (e.g., residues F508A-L1008A). […] For example, screening of the beta klotho mutant proteins was conducted at a concentration of 0.5 μg/ml for the humanized 5H23 antibody, 1.0 μg/ml for the Fab fragment, and 2.0 μg/ml for a positive control polyclonal anti-beta klotho antibodies.

[2] = target: T2, human beta klotho mutant R703A on HEK-293T cells (human, UniProt Q86Z14 1-1044); assay: as above
T2 sequence: T1 sequence with A701Y, R703A
Method: as §1

[3] = target: T2, human beta klotho mutant R703A on …; assay: shotgun alanine mutagenesis, FACS on HEK-293T cells, antibody 0.5 µg/ml
Method: as §1
The resulting mapping identified three specific binding residues, H657, Y701 and R703, which were negative for binding by the humanized 5H23 antibody, but were positive for the control polyclonal anti-beta klotho antibodies. These residues represented amino acids whose side changes made the highest energetic contributions to the antibody-epitope interation as shown in Table 31. The locations of the three identified residues were modeled by showing them (dark spheres) at the equivalent positions on human cytosolic beta-glucosidase (PDB ID #2JFE; Tribolo et al., J. Mol. Biol. 370, 964-975 (2007)), identified by BLAST alignment of the two proteins as shown in FIG. 6.

B1: humanized 5H23 antibody (VH SEQ ID NO: 271 and VL SEQ ID NO: 276) (antibody, V domains shown)
VH: QVQLQQSGAEVKKPGASVKVSCKASGYTFTSYDINWVRQAPGQGLEWIGWIYPGDGSTKYNEKFKGKATITRDTSASTAYMELSSLRSEDTAVYFCARSDYYGSRSFAYWGQGTLVTVSS
VL: DIVMTQSPDSLAVSLGERATINCRASKSVSTSGYVYMHWYQQKPGQPPKLLIYLASYLESGVPDRFSGSGSGTDFTLTISSVQAEDVAVYYCQHSRDLTFPFGGGTKLEIK
notes: also called h5H23; h5H23 (Prep 1)
With B1 the binding result [1] was “no binding (tested: 0.5 µg/ml)”, the binding result [2] was “no binding (tested: 0.5 µg/ml)” and the “Binding Reactivity (% WT)” value [3] was 1.64 % WT.

Reference: patent US20210030857A1 (NGM BIOPHARMACEUTICALS, published 2021)
